According to the nanobody polyreactivity screen of Harvey et al. (2022):

Test: yeast display, Sf9 membrane polyspecificity reagent, FACS + sequencing; frameworks hold sequencing errors
Outline: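 Polyreactivity labels are assigned by the sorting gate from which each nanobody was recovered. The gates were low and high (top ~1%), set on anti-HA fluorescence for expression and streptavidin fluorescence for reagent binding. Before sorting, galactose-induced (36–48 hours) yeast display cells were stained for 1 hour at 4 °C with 10% biotinylated, detergent-solubilized Sf9 membrane reagent.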

Sequence | polyreactivity (PSR sort gate)
QVQLVESGGGLVQAGGSLRLSCAASGIIIAYYAMGWYRQAPGKERVLVATISSGGRTKYADSVKGRFTISRDNAKNTVYLQMNSLKPEDTAVYYCNTDRYFRRYYWYDYWGQGTQVTVSS | high polyreactivity
QVQLVESRGGLVQAGGSLRLSCAASGFIFFQYAMGWYRQAPGTERELVAAISGSGVTTYYADSVKGRFTISRDNAKNTVYLQMNSLKPEDTAVYYCNAALRWKYDWGQGTQVTVSS | low polyreactivity
QVQLVESGVCLVQAGGSLRLSCAASGRIFYYYTMGWYRQAPGKERELVAAITSGGSTYYADSVKGSFTISRDNAKNTVYLQMNSLKPEDTAVYYCNAEFDDKYDYWGQGTQVTVSS | low polyreactivity
QVQLVESGGGLVQAGGSLRLICAASGSIFSLYAMGWYRQAPGKQREFVASISRSGGITYYADSVKGRFTISRDNEKNTVYLQMISLKPEDTAVYYCAAVGWVSYRRYDYWGQGTQVTVSS | high polyreactivity
QVKLLESGGGLVQAGGSLLLSCAASGSIFDGYSMVWYRQAPGKEREFVASIRFSTGRTYYADSVKGRFTISRDNAKNTVYLQMNSLKPEDTAVYYCNAPQGFVWRYSSWGPYDYWGQGTQVTVSS | high polyreactivity
QVQLVESGGGLVQAGGILRLSCAASGRIFYYNTMGWYRQAPGKERELVAAITRGGGRTYYADSVKGRFTISRDNAKNTVYLQMNSLKPEDTAVYYCNTRSTLGYYWGQGTQVTVSS | high polyreactivity
QVQLVESGGGLVQAGGSLRLSCAASGSTFNQYTMGWYRQAPGKERELVAAISKSGGSTYYADSVKGRFTISRDNAKNTVYFQMNSLKPEVTAVYYCAADRYYDYRVDYWGQGTQVTVSS | high polyreactivity
QVQLVETWGGLVQAGGSLRLSCAASGRNFRTNAMGWYRQAPGKERELVAAITSDGTYYADSVKGRFTISRDNAKNNVYLQMNSVKPEDTAVYYCNVDDRETRDDYWGQGTQVTVSS | low polyreactivity
QVQLQESGGGLVQAGGCLRLSCAASGTIFDPDYMGWYHQAPGKERELVASISLGRITYYADSVKGRFTINRDNAKNTVYLQMNSLKPEDTAVYYCAVRVETIYYYSYWGQGTQVTVSS | high polyreactivity
QVQLVESGGGLVQAGGSLRLSCAASGFTFPFYTMGWYRQAPGKERELVAAITRSGASTFYADSVKGRFTISRDNAKNTVYLQMNSLKPEDTAVYYCAARRGYAPYEYWGQGTQVTVSS | high polyreactivity
QVQLVESGGGLVQAGGSLRLSCAASGIIFYAYAMGWYRQAPGKERELVAAITFSAVSTYYADSVKGRFTISRDNAKNTVYLQMNSLKPEDTAVYYCAVDREWPGYYYAISKMYYWGQGTQVTVSS | low polyreactivity
QVQLVESGGGLVQAGGSLRLSCAASGYTFVYNGMGWYRQAPGKERELVAAIRRRTGTTYYADSVKGRFTISRDNAKNTVYLQMNSLKPEDTAVYYCAATGFWGYDWGQGTQVTVSS | high polyreactivity
QVQLVESGGGLVQAGGSLRLSCAASGFTFYVYAMGWDRQAPGKEREFVAAISSSGGSTYYADSVKGRFTISRDNAKNTVYLQMNSLKPEDTAVYYCAALAYSTTRGRLDYWGQGTQVTVSS | high polyreactivity
QVQLVESGGGLVQAGGSLRLSCAASGRIFRYNAMGWYRQAPGKERELVATISRGGGSTYYADSVKGRFTISRDNAKNTVYLQMNSLKPEDTAVYYCAAVGYYLVKFDYWGQGTQVTVSS | high polyreactivity
QVQLVESGGGLVQAGGSLRLSCAASGLTYSNAMGWYRQAPGKERELVAAISWRGGRTYYADSVKGRFTISRDNAKNTVYLQMNSLKPEDTAVYYCAKYAHGHKWYGYWGQGTQVTVSS | low polyreactivity
QVQLVESGGGLVQAGGSLRLSCAASGSIFVYNAMGWYRQAPGKERELVAAISQRGGSTYYADSVKGRFTISRDNAKNTVYLQMNSLKPEDTAVYYCAAAPGDSGDDYWGQGTQVTVSS | low polyreactivity
QVQLVESGGGLVQAGGSLRLSCAASGFIFRANAMGLYREAPGKERELVATISRSGGSTSYADSVKGRFTISRDNAKNTVYLQMNSLKPEDTAVYYCNKRTPYLRPIRDYWGQGTQVTVSS | high polyreactivity
QVQLVESGGGLVQAGGSLRVSCAASGSIFSSYAMGWYRQAPGKDRELVAVINSGGSTNYADSVKGRFTISRDNAKNTVYFQMNTLKPEDTAVYYCNAYGGTFHNSAAEFDYWGQGTQVSVSS | low polyreactivity
QVQLVESGGGLVQAGGSLRLSCAASGGIFADYAMGWYRQAPGKERELVADISARGGSTYNADSVKGRFTISRDNAKNTVYLQMNSLKPEDTAVYYCATDGPGYPPTLRYDYWGQGTQVTVSS | low polyreactivity
QVHLVESGVGLVQSGGSIRLTCAASGSTFHVYTKGSYRQAPGKEREFVASISCSGSSTYYADSVKGRFTISRDNAKNTVYLQMNSLKPEDTAVYYCNVDRWWLGWYKFNYWGQGTQVTVSS | high polyreactivity
QVQLVESGGGLVQAGGSLRLSCAASGRTFPYNAMGWYRQAPGKERELVAAISGRGGSTYYADSVKGRFTISRDNAKNTVYLQMNSLKPEDTAVYYCAARLPWSYYRTQGYNYWGQGTQVTVSS | high polyreactivity
QVQLVESGVCLVQAGGSLRLSCAATGSIFEYNAMGWYRQAHGKERELVAAITRGGNTYYADSVKGLFTISRDNAKNTVYLQMNSLKPEDTAVYYCAAVEWYGYPYYYWGQGTQVTVSS | low polyreactivity

Sequence | polyreactivity (PSR sort gate)
QVQLVESGGGLVQAGGSLRLSCAASGRIFWYYNMGRYRQAPGKERELVASINSDTGTYYADSVKGRFTISRDNAKNTVYLQMNSLKPEDTAVYYCTRDSESDANTFTTSGIDEPYDYWGQGTQVTVSS | low polyreactivity
QVQLVESGGGLVQAGGSLRLSCAASGIIFDINAMGWYRQAPGKERELVAAITTSVDSTYYADSVKGRFTISRDNAKNTVYLQMNSLKPEDTAVYYCAAGPGDSGDDYWGQGTQVTVSS | low polyreactivity
QVQLVESGGGLVQAGGSLRLSCAASGFNLRRNAMGWYRQAPGKERELVAAITSSGGRTTYADSVKGRFTISRDNAKNTVYLQMNSLKPEDTAVYYCAADFHVDYDYWGQGTQVTVSS | high polyreactivity
QVQLVESGGGLVQAGGSLRLSCAASGSNFRYYAMGWYSPAPGKERELVAAISQSGGSTYSADSVKGRFTISRDNAKTTVYLQMNSLKPEDTAVYYCAARRVDTRGHVRYRYYYWGQGTQVTVSS | high polyreactivity
QVQLVESGGGLVQAGGSLRLSCAASGSIFFRNAMGRYRPAPGKERELVAAISKSGGSTYYADSVKGRFTISRDNAKNTVYLQMNSLKPEDTAVYYCAAERTFLYWAYDYWGQGTQVTVSS | high polyreactivity
QVQLVESGGGLVQAGGSLRLRCAASGSSFTGYAMGLYRQAPGKEREFVAAICWTGVSTYYADSVKGSFTISRDNAKNTVYLQMNSLKPEDTAVYYCAVDYVLRDRDLFYIIMEYWGQGTQVTVSS | low polyreactivity
QVQLVESGGGLVQAGGSLRLSCAASGINFVRNAMGWYRQAPGKERELVAAITGRGVSTYYADSVKGRFTISRDNAKNTVYLQMKSLKPEDTAVYYCAARYSSRGTYPRRYDYWGQGTQVTVSS | high polyreactivity
QVQLVESGGGLLQAGGSLRLSCAASGRTFHTYAMGWYRHAPGKERELVAAISRSGGSTYYADSVKGRFTISRDNAMNPVYLQMNSLKPEDTAVYYCADTAGYWGQGTQVTVSS | high polyreactivity
QVQLVESGGGLVQAGGSLRLSFAASGSTFYYHAMGWYRQAPGKERELVAAIRSTGSTNYADSVKGRFTISRDNAKNTVYLQMNSLKPEDTAVYYCAARIRRTRGYNYWGQGTQVTVSS | high polyreactivity
QDQLVESGGGLVQAGGSLRLSCAASGIIFAWYVMGWYRQAPGKERELVATITSSGGRTYYADSVKGRFTISRDNAKNTVYLQMNSLKPEDTAVYYCNAALTRAFKHSTGYDYWGQGTQVTVSS | low polyreactivity
QVQLVESGGGLVQAGGSLRLSCAASGRILLRNVMGWYRQAPGKERELVAVITRTGITYYADSVMGRFTITRDNAKNTVYLQMTSLKPEDTAVYYCAAGLPKYEHDYWGQGTQVTVSS | low polyreactivity
QVQLGESGGGLVQAGGSLRLSCAASGSTFITYAMGLYRQAPGKERELVAAITRGGRRYYADSVKGRFTISRDNAKNTVYLQMNSLKPEDTAVYYCAARDWASHTPFDYWGQGTQVTVSS | high polyreactivity
QVQLVESGGGLVQAGGSHRLSCAASGRIFAYNAMGWYRQAPGKERELVAAISSGGNTYYADSVKGRFTISRDNAKNTVYLQMNSLTPEDTAVYYCNAGVGWHRYYSNYDYWGQGTQVTVSS | low polyreactivity
QVQLVESGGGLVQAGGSLRLSCAASGSILTHYAMGWYRQAPGKERELVAAITWRGGSTYYADSVKGRFTISRDNAKNTVYLQMNSLKPEDSAVYYCNADYFGGGDYWGQGTQVTVSS | low polyreactivity
QVQLVESGGGLVQAGGSLRLSCAASGRTFYYNVMGWYRQAPGKERELVAAISTGVSTNYADSVKGRFTISRDNAKNTVYLQMNSLKPEDTAVYYCNARSYRWYRPVYRYDYWGQGTQVNVSS | high polyreactivity
QVQLVESGGGLDQAGGSHRLSCAASGSTFPYPNTMGWYRQAPGKERELVAVISRTGGSTFYADSVKWRFTISRDNAKNTVYFQMNSLKPEDTAVYYCAARRDGWTFWKYDYWGHGTQVTVSS | high polyreactivity
QVQLVESGGGLVQAGGSLRLSCAASGITFKTYAMGWYRQAPGKERELVATINRGSRTNYADSVKGRFTISRDNAKNTVYLQMNSLKPEDTAVYYCAAEYVTYISSEMDYWGQGTQVTVSS | low polyreactivity
QVQLVESGGGLVQAGGSLRLSCAASGSIFKPYAMGWYRQAPGKERELVAAISGIGGSTYYADSVKGRFTISRDNAKNTVYLQMNCLKPEDTAVYYCAADTFFKIFSEYNYWGQGTQVTVSS | high polyreactivity
QVQLVESGGGLVQAGGSLRLSCAASGFTFDSYAMGWYRQAPGKERELVAAITSDGSTYYADSVKGRFTISRDNAKNSVYLQMNSLKPEDTAVYYCAADGISLYATAYDFWGQGTQVTVSS | low polyreactivity
QVQLVESGGGLVQAGGSLRLSCAASGLILKYYAMGWYRQAPGKEREFVAAITRRGGITYYADSVKGRFTISRDNAKNTVYLQMNSLKPEDTAVYSCAADPILGSLAYWRYSYPLYDYWGQGTQVTVSS | low polyreactivity
QVQLVESGGGLVQAGGSLRLSCAASGITFNSNAMGWYRQAPGKERELVATISNGGSTNYADSVKGRFTISRDNAKNTVYLQMNSLKPEDTAVYDCNTRRGSLSGLYVYSIQGYDYWGQGTQVTVSS | low polyreactivity
